Experimental data from patent publication US7459156 (University of California, dated 2008).

Experiments:
[1] = molecular target: T1, low affinity nerve growth factor receptor (LNGFR) on PC12 cells (rat, UniProt P07174 30-425); experiment: equilibrium ^125I-NGF binding to PC12 cells, Scatchard/LIGAND; 500 ug/ml RtrkA.EX IgG present; remaining low affinity site
T1 construct: whole, on cells
T1 sequence (looked up): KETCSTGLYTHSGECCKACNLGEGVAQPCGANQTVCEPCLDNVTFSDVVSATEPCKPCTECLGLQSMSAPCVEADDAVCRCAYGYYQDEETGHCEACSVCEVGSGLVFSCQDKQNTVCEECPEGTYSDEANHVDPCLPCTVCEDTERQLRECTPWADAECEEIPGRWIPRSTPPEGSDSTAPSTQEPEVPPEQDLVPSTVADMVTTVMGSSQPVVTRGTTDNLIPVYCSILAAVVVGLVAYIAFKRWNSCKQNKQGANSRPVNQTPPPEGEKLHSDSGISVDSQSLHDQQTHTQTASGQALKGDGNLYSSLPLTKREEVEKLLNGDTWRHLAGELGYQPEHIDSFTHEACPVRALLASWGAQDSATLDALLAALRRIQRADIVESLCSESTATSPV
Protocol: (§1) Binding Assays. […] Nonspecific binding was determined by addition of […] unlabeled NGF, and ranged from 2-25% of specific binding. Determinations were made in triplicate. The equilibrium binding data from two experiments were combined for the Scatchard analysis (Scatchard, G., *Analys of NY Acad. Sciences* 5:660-672 (1949)), which was performed with the program LIGAND (Munson, P. J. and Rodbard, D., *Anal. Biochem.*, 107, 220-239 (1980)). The Scatchard data are plotted as fmoles bound per 10^5 cells (equivalent to a volume of 2×10^-4 liters).
(§2) To analyze the characteristics of the NGF binding sites remaining in the presence of the anti-LNGFR or -trkA antibodies, equilibrium binding assays were performed from 3.5 to 4000 pM NGF. The results are plotted by the Scatchard method in FIG. 2. As is now well known, PC12 cells have NGF binding sites with differing kinetic characteristics, leading to low and high affinity binding sites (Schechter and Bothwell, 1981). This is observed in the biphasic graph of NGF binding determined in the presence of control IgG (FIG. 2, open squares; the binding parameters are presented in Table 1).
(§3) FIG. 2 is an analysis of anti-LNGFR- and RtrkA.EX-resistant NGF binding sites. […] Nonspecific binding was determined as in FIG. 1A; values were determined in triplicate.

[2] = molecular target: T2, rat trkA receptor (full length, 140 kD) (rat, UniProt P35739 33-799); experiment: equilibrium ^125I-NGF binding to PC12 cells, Scatchard/LIGAND; control IgG present; high affinity site
T2 construct: whole, on cells; also called p140trk; native trkA receptor protein
Protocol: as §1, §2, §3

[3] = molecular target: T1, low affinity nerve growth factor …; experiment: equilibrium ^125I-NGF binding to PC12 cells, Scatchard/LIGAND; control IgG present; low affinity site
Protocol: as §1, §2, §3

[4] = molecular target: T2, rat trkA receptor (full length, 140 kD); experiment: equilibrium ^125I-NGF binding to PC12 cells, Scatchard/LIGAND; 500 ug/ml anti-LNGFR IgG present; remaining high affinity site
Protocol: as §1, §2, §3

T2 sequence (P35739 33-799): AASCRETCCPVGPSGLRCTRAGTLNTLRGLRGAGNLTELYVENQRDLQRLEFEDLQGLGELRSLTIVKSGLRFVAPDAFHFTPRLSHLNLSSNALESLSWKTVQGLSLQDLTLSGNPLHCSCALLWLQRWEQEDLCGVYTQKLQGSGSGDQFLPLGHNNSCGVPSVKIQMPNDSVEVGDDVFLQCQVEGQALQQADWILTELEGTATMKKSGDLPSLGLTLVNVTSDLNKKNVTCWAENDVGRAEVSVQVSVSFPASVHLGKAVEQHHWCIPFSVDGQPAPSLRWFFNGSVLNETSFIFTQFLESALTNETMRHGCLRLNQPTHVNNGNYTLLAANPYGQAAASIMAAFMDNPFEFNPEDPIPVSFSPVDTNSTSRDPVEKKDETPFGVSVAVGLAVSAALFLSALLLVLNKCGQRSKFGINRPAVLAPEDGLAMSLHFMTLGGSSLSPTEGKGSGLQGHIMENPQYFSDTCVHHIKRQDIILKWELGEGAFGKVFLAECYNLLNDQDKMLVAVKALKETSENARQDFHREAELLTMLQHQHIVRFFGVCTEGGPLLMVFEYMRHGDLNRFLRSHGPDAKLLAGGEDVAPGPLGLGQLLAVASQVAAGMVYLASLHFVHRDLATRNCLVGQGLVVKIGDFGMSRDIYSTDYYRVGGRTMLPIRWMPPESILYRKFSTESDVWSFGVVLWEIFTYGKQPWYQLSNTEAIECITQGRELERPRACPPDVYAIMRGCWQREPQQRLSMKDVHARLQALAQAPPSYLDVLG

B1: nerve growth factor (NGF) (ligand, mouse, UniProt P01139 122-241, looked up)
chain: SSTHPVFHMGEFSVCDSVSVWVGDKTTATDIKGKEVTVLAEVNINNSVFRQYFFETKCRASNPVESGCRGIDSKHWNSYCTTTHTFVKALTTDEKQAAWRFIRIDTACVCVLSRKATRRG
modifications: 125I label on the NGF used in the binding assays
notes: mature; The species is stated only for the unlabelled NGF; the labelled NGF was bought
Kd [1]: 1.1 nM | Kd [2]: 0.038 nM | Kd [3]: 1.8 nM | Kd [4]: 0.092 nM
